Biological target: mRuby2-Tau (human Tau full length) (human) (UniProt P10636)
Assay: FRET or BRET; FLIM-FRET (clover donor lifetime) in living SH-SY5Y cells after hyperosmotic stress (sucrose); only pixels belonging to BAG2 condensates fitted

UniProt P10636, sequence (P10636 2-758): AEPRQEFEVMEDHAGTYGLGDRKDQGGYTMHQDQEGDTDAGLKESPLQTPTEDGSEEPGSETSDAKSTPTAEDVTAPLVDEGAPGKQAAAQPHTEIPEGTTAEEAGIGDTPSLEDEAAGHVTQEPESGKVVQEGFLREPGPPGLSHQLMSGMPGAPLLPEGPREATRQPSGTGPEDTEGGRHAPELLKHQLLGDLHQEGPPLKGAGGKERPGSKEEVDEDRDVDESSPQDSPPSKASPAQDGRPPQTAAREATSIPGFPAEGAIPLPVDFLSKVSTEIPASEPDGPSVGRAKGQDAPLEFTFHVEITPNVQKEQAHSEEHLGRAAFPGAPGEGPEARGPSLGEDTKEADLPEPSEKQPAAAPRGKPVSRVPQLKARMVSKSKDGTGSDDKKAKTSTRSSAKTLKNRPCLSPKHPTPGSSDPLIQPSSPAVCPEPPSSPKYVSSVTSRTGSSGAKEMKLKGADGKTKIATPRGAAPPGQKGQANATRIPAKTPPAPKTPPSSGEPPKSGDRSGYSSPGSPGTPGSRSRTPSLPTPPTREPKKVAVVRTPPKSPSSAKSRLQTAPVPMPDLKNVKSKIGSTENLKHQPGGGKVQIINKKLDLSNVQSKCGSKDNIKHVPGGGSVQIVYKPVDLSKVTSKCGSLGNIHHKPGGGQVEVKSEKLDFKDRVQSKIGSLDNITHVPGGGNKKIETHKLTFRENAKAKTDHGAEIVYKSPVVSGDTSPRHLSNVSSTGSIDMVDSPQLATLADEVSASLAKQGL

fluorescence lifetime of the donor (FLIM-FRET), pixels of BAG2 condensates after stress: 2.8 ns
Substance: mClover2-BAG2 (Bcl2-associated athanogene 2, full length) (from UniProt O95816 1-211) (natural protein)

From paper PMC9163039
